Reference: the RNAGym collection of RNA variant scans (doi:10.1093/molbev/msab373)

B1: Azoarcus group I ribozyme (parent)
chain: GUGCCUUGCGCCGGGAAACCACGCAAGGGAUGGUGUCAAAUUCGGCGAAACCUAAGCGCCCGCCCGGGCGUAUGGCAACGCCGAGCCAAGCUUCGGCGCCUGCGCCGAUGAAGGUGUAGAGACUAGACGGCACCCACCUAAGGCAAACGCUAUGGUGAAGGCAUAGUCCAGGGAGUGGCGAAAGUCACACAAACCGG

Variants of: B1
Assay: reverse-splicing fitness (ratio to wild type); higher = more active; in vitro selection; Mg2+ level not given
How it was run: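 An in vitro group I ribozyme library with randomized positions was T7-transcribed and gel-purified. In triplicate, 10 pmol RNA in EPPS pH 7.5 was reacted with 50 pmoles of a 30-nt RNA substrate for 1 h at 37 °C across several added MgCl2 levels (1–48 mM), then stopped with EDTA. Products were reverse transcribed from a substrate-complementary primer, PCR-amplified and sequenced (HiSeq 4000). Fitness is a variant's read proportion after selection over that before, normalised to wild type.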

Variant | reverse-splicing fitness
C82U A111G A145U C150U C169A U176A | 0.0115
C82U A111U A120C A145G C169U U176A | 0.0163
C82U A111U A120C A145G C169U U176G | 0.00475
C82U A111U A120C A145G C169U U176C | 0.0162
C82U A111G A145U U176A | 0.204
C82U A111G A145U U176G | 0.0781
C82U A111G A145U U176C | 0.258
C82U A111U A120C A145U C150A C169U | 0.00908
C82U A111U A120C A145U C150A C169A | 0.00772
C82U A111U A120C A145U C150A C169G | 0.00687
C82U A111U | 0.327
C82U A111G C150U C169G U176G | 0.00558
C82U A111G C150U C169G U176A | 0.0191
C82U A111G C150U C169G U176C | 0.0162
C82U A111U A120C A145U C150G U176A | 0.00587
C82U A111U A120C A145U C150G U176G | 0.00331
C82U A111U A120C A145U C150G U176C | 0.00709
C82U A111G U176A | 0.193
C82U A111G U176G | 0.0517
C82U A111G U176C | 0.274
C82U A111G C150G C169G U176G | 0.00525

Variant | reverse-splicing fitness
C82U A111G C150G C169G U176C | 0.00418
C82U A111G C150G C169G U176A | 0.0075
C82U A111G A145U C150G C169U U176C | 0.0112
C82U A111G A145U C150G C169U U176G | 0.00472
C82U A111G A145U C150G C169U U176A | 0.00755
C82U A111U A120C A145G C150U U176A | 0.0116
C82U A111U A120C A145G C150U U176G | 0.00597
C82U A111U A120C A145G C150U U176C | 0.0214
C82U A111U A120C A145U C150A C169U U176G | 0.00498
C82U A111U A120C A145U C150A C169U U176A | 0.0145
C82U A111U A120C A145U C150A C169U U176C | 0.0156
C82U A111U A120C A145U C150A C169A U176C | 0.0094
C82U A111U A120C A145U C150A C169A U176G | 0.00478
C82U A111U A120C A145U C150A C169A U176A | 0.0106
C82U A111U A120C A145U C150U C169U | 0.0101
C82U A111U A120C A145U C150U C169A | 0.00828
C82U A111U A120C A145U C150U C169G | 0.00796
C82U A111U A120C A145G C150U C169A U176C | 0.0136
C82U A111U A120C A145G C150U C169A U176A | 0.017
C82U A111U A120C A145G C150U C169A U176G | 0.00576
C82U A111G C150A | 0.0385

Variant | reverse-splicing fitness
C82U A111G C150G | 0.0267
C82U A111G C150U | 0.224
C82U A111U A120C A145C U176C | 0.0132
C82U A111U A120C A145C U176A | 0.0125
C82U A111U A120C A145C U176G | 0.00539
C82U A111U A120C A145C C169G | 0.00709
C82U A111U A120C A145C C169A | 0.0065
C82U A111U A120C A145C C169U | 0.011
C82U A111G C169A U176A | 0.0124
C82U A111G C169A U176C | 0.0146
C82U A111G C169A U176G | 0.00438
C82U A111G A145U C150A C169G U176A | 0.0131
C82U A111G A145U C150A C169G U176C | 0.0113
C82U A111G A145U C150A C169G U176G | 0.00518
C82U A111U A120C A145C C150G C169A U176A | 0.00641
C82U A111U A120C A145C C150G C169A U176G | 0.00527
C82U A111U A120C A145C C150G C169A U176C | 0.00591
C82U A111G A145G C169G U176G | 0.00438
C82U A111G A145G C169G U176C | 0.0236
C82U A111G A145G C169G U176A | 0.02
C82U A111G C150U U176A | 0.102

Variant | reverse-splicing fitness
C82U A111G C150U U176C | 0.146
C82U A111G C150U U176G | 0.0286
C82U A111G A145U C150G U176A | 0.0137
C82U A111G A145U C150G U176G | 0.00442
C82U A111G A145U C150G U176C | 0.0255
C82U A111U A120C A145C C150A C169G U176G | 0.00543
C82U A111U A120C A145C C150A C169G U176C | 0.0108
C82U A111U A120C A145C C150A C169G U176A | 0.0195
C82U A111G A145U C169U | 0.0102
C82U A111G A145U C169A | 0.00645
C82U A111G A145U C169G | 0.00731
C82U A111U A120C A145G C150G C169G | 0.00731
C82U A111U A120C A145G C150G C169U | 0.00911
C82U A111U A120C A145G C150G C169A | 0.00919
C82U A111U A120C A145C C169A U176C | 0.00567
C82U A111U A120C A145C C169A U176G | 0.00392
C82U A111U A120C A145C C169A U176A | 0.00868
C82U A111U A120C A145C C150U C169G U176A | 0.0175
C82U A111U A120C A145C C150U C169G U176G | 0.00538
C82U A111U A120C A145C C150U C169G U176C | 0.00936
C82U A111G A145G C150U U176G | 0.0312
